In PMC2661133:

Molecular target: Anasazi bean lectin (lectin from seeds of Phaseolus vulgaris cv. Anasazi beans) (Phaseolus vulgaris)
Test: SEC; FPLC-gel filtration on Superdex 200 HR 10/30 calibrated with molecular-mass standards, 20 mM Tris-HCl buffer (pH 7.3); 60 kDa peak set against the 30 kDa band in SDS-PAGE

Substance: Anasazi bean lectin (lectin from seeds of Phaseolus vulgaris cv. Anasazi beans) (natural protein)
- stoichiometry N: 2
